Experiments:
[1] = biological target: Macaca fascicularis EGFR (cell surface) (Macaca fascicularis); assay: FACS binding to W562.CHOK1.cPro1.H6 cells (monkey EGFR), upper panel and table
[2] = biological target: mouse EGFR (cell surface) (mouse) (UniProt Q01279); assay: FACS binding to W562-CHO-K1.mPro1.F3 cells (mouse EGFR), lower panel and table
[3] = biological target: Macaca fascicularis EGFR (cell surface) (Macaca fascicularis); assay: FACS binding to W562-CHO-K1.cPro1.H6 cells (monkey EGFR), lower panel and table
[4] = biological target: mouse EGFR (cell surface) (mouse) (UniProt Q01279); assay: FACS binding to W562-CHO-K1.mPro1.F3 cells (mouse EGFR), lower panel and table; the curve is still rising at 100 nM
[5] = biological target: mouse EGFR (cell surface) (mouse) (UniProt Q01279); assay: FACS binding to mouse EGFR cells; the table head prints W562.CHOK1.cPro1.H6

EC50 [1]: 1.47 nM
Top MFI [1]: 37500 MFI
TOP MFI [2]: 32800 MFI
EC50 [3]: 1.24 nM
TOP MFI [3]: 16000 MFI
EC50 [4]: 6.41 nM
EC50 [5]: 2.42 nM
Top MFI [5]: 31000 MFI
B1: W562-BMK3 (antibody, from another filing, human IgG1, V domains shown)
VH: QVQLQESGPGLVKPSETLSLTCTVSGLSLASNSVSWIRQPPGKGLEWMGVIWNHGGTDYNPSIKSRLSISRDTSKSQVFLKMNSLTAADTAMYFCVRKGGIYFDYWGQGVLVTVSS
VL: DTVLTQSPSLAVSPGERATISCRASESVSTLMHWYQQKPGQQPKLLIYLASHRESGVPARFSGSGSGTDFTLTIDPMEAEDTATYYCQQSRNDPWTFGQGTKLELKR

From patent publication US20210115146A1
